Data set [1] has as its target α-galactosidase from Thermus thermophilus HB27 (TtGalA), N-terminally His-tagged, expressed in T. thermophilus HB27::nar (Thermus thermophilus HB27). The experiment in a line: SEC-MALS; size-exclusion chromatography (S200 16/60) with Mini DAWN Treos triple-angle light scattering and QELS; 500 µg of protein (1 mg/ml) loaded; 0.5 ml/min; buffer A (50 mM Tris-HCl pH 7.5, 500 mM NaCl). In general terms: Size exclusion chromatography separates by hydrodynamic size, large species first.

Substrate in the data set “purified protein”: O=[N+]([O-])c1ccc(O[C@H]2O[C@H](CO)[C@H](O)[C@H](O)[C@H]2O)cc1
The data set can be described thus: purified protein. To be noted: 90 °C, pH 6.0, 50 mM sodium phosphate.

For “α-galactosidase from Thermus thermophilus HB27 (TtGalA), N-terminally His-tagged, expressed in T. thermophilus HB27::nar (enzyme)”, the stoichiometry N in data set [1] came to 6.

B1: TtGalA (Thermus thermophilus HB27) (protein)
chain: MRLNLGGAEVFLRAEGLEEAPGGVRLWGREVRVFPPFPAKGFFRHGWQSWSLAAWVDPAQAPTPLLPEARRPQADDPFLLEAGAWWGSGVGALRGPDGRALLLGALDLGARVLGREDLLLGRYAGEGGAWFLAHGPEEEVFAAYAQLLPRRLSGRPPRVWCSWYSFYTRIGEDLLLRVLDEVAAFSFEVFQIDDGWQRALGDWEPNDRFPRGMAFLAERIRERGLRPGLWFAPFLVTADSPLFQMRPDWVLRDGEGRPVRAGFNWGRPLYALDAGNEEVVEWAADLVRKALAWGYDYLKLDFLYAAALPGAEGEARYRRAMARLREAAGEAYLLFCGAPVLASLGLADGLRVGPDVAPYWDNEERSFWLADPTGPGLRNALRSTLHRLWLMENVHVDPDVVYFRTRFNLLSPEEMRLQEALAHFTGFKATSDPPSWLLPEEKGRLEAFLAREVPVRRLGPYRFRVGEEEVDYAPLL
On to B1, for which, in the data set “purified protein”, the Km came to 690 ± 17 µM, the maximum rate (Vmax) was 338 µmol/min/mg and the kcat was found to be 710 s⁻¹.

What is called stoichiometry N is a count of units in the complex or per binding partner. In general, Km refers to the concentration of substrate that gives half-maximal velocity. In general, Vmax refers to the rate approached at saturating substrate. What is called kcat is the maximal rate divided by the concentration of active sites.

Source of the values: publication PMC5307791, “Thermus thermophilus as source of thermozymes for biotechnological applications: homologous expression and biochemical characterization of an α-galactosidase” (Microbial Cell Factories, 2017).
